{
  "source": "patent US8802630B2",
  "about": "“Method of treating brain injury” (Buddhist Tzu Chi General Hospital, priority 2011, dated 2014)",
  "conditions": "rat, in vivo",
  "note": "Where no end group is shown, it is not given here.",
  "data": [
    {"substance": "fluorescence-labeled UCN: UCN labeled with the Alexa Fluor 488 dye using Microscale Protein Labeling Kit (DNPSLSIDLTFHLLRTLLELARTQSQRERAEQNRIIFDSV; ends and bridges not checked; also: Alexa Fluor 488 label, site not given here; UniProt P55089 83-122, looked up)", "values": [
      {"measurement": "penetration from lateral ventricle into striatal parenchyma", "result": "co-localized in cell nuclei of the striatum on the ipsilateral"}
    ]}
  ]
}
